For 4 substances, percent of transfected protoplasts with YFP fluorescence results are on record in PMC9279372.

In this assay the target is DEIP1-cYFP fusion protein (Arabidopsis thaliana). The assay is described as follows: split reporter (BiFC, NanoBiT); BiFC with vector pBIFCt-2in1-CC in N. benthamiana, Agrobacterium co-infiltration with p19; protoplasts isolated three days after infiltration; YFP and RFP fluorescence by confocal microscopy; 80 protoplasts in two independent experiments for each interaction.
Sequence of DEIP1-cYFP fusion protein (Arabidopsis thaliana) (main, as listed by the source): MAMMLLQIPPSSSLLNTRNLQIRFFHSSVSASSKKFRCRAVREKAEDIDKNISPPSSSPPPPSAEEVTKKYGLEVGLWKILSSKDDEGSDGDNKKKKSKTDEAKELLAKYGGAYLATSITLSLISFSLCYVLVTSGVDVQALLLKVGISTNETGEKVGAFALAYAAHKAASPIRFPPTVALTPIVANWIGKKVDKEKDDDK

“DEIP1-cYFP fusion protein (natural protein)” gave a percent of transfected protoplasts with YFP fluorescence of 54%.

“PetA with the pea RBCS chloroplast transit peptide and C-terminal nYFP (from UniProt P56771 36-320)” came in with a percent of transfected protoplasts with YFP fluorescence of 30%. “PetB with the pea RBCS chloroplast transit peptide and C-terminal nYFP (from UniProt P56773 1-215)” yielded a percent of transfected protoplasts with YFP fluorescence of 28%. As to “PetD with the pea RBCS chloroplast transit peptide and C-terminal nYFP (from UniProt P56774 1-160)”, the percent of transfected protoplasts with YFP fluorescence turned out to be 17%.
